Publication PMC9464592 (Nature, 2022)
Changes are numbered by the printed parent chain. Names may count otherwise. Each block holds one binder with its values, some of them ahead of it.

How the values were obtained:
[1] = target: T1, tag-free WDR59 (human, UniProt Q6PJI9 1-974); test: SEC
T1 sequence: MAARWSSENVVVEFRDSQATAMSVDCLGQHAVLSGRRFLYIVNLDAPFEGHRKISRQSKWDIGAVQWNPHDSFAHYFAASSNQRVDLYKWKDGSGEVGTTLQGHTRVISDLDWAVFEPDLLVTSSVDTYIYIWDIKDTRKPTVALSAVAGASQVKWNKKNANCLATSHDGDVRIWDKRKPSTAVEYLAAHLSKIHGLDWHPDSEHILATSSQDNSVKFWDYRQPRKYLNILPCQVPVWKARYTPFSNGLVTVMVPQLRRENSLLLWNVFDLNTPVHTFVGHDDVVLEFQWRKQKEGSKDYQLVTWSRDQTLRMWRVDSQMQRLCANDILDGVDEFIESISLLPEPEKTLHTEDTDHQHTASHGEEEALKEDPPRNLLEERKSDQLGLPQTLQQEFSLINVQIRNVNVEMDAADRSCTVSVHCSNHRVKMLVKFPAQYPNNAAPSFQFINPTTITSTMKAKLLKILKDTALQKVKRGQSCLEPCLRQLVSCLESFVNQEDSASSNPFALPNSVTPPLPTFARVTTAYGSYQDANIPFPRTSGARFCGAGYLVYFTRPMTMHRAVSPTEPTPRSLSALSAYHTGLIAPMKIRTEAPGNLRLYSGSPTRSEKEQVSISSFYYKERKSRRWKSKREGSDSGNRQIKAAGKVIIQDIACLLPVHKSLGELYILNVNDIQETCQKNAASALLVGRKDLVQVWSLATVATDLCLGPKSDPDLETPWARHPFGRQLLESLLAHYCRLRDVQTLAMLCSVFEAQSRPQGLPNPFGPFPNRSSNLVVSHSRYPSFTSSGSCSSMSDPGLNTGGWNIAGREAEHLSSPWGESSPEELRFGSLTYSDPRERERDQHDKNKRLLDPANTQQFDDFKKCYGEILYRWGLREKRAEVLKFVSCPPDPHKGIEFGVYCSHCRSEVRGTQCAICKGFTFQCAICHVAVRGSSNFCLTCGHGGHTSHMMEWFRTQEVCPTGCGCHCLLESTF

[2] = target: T1, tag-free WDR59; test: cryo-EM structure

binding result [1]: binds
B1: WDR24 ∆CTD (domain or fragment, human, UniProt Q96S15 1-700, looked up)
chain: MEKMSRVTTALGGSVLTGRTMHCHLDAPANAISVCRDAAQVVVAGRSIFKIYAIEEEQFVEKLNLRVGRKPSLNLSCADVVWHQMDENLLATAATNGVVVTWNLGRPSRNKQDQLFTEHKRTVNKVCFHPTEAHVLLSGSQDGFMKCFDLRRKDSVSTFSGQSESVRDVQFSIRDYFTFASTFENGNVQLWDIRRPDRCERMFTAHNGPVFCCDWHPEDRGWLATGGRDKMVKVWDMTTHRAKEMHCVQTIASVARVKWRPECRHHLATCSMMVDHNIYVWDVRRPFVPAAMFEEHRDVTTGIAWRHPHDPSFLLSGSKDSSLCQHLFRDASQPVERANPEGLCYGLFGDLAFAAKESLVAAESGRKPYTGDRRHPIFFKRKLDPAEPFAGLASSALSVFETEPGGGGMRWFVDTAERYALAGRPLAELCDHNAKVARELGRNQVAQTWTMLRIIYCSPGLVPTANLNHSVGKGGSCGLPLMNSFNLKDMAPGLGSETRLDRSKGDARSDTVLLDSSATLITNEDNEETEGSDVPADYLLGDVEGEEDELYLLDPEHAHPEDPECVLPQEAFPLRHEIVDTPPGPEHLQDKADSPHVSGSEADVASLAPVDSSFSLLSVSHALYDSRLPPDFFGVLVRDMLHFYAEQGDVQMAVSVLIVLGERVRKDIDEQTQEHWYTSYIDLLQRFRLWNVSNEVVKLS

binding result [1]: binds
B2: MIOS A560E (natural protein, human)
chain: MSGTKPDILWAPHHVDRFVVCDSELSLYHVESTVNSELKAGSLRLSEDSAATLLSINSDTPYMKCVAWYLNYDPECLLAVGQANGRVVLTSLGQDHNSKFKDLIGKEFVPKHARQCNTLAWNPLDSNWLAAGLDKHRADFSVLIWDICSKYTPDIVPMEKVKLSAGETETTLLVTKPLYELGQNDACLSLCWLPRDQKLLLAGMHRNLAIFDLRNTSQKMFVNTKAVQGVTVDPYFHDRVASFYEGQVAIWDLRKFEKPVLTLTEQPKPLTKVAWCPTRTGLLATLTRDSNIIRLYDMQHTPTPIGDETEPTIIERSVQPCDNYIASFAWHPTSQNRMIVVTPNRTMSDFTVFERISLAWSPITSLMWACGRHLYECTEEENDNSLEKDIATKMRLRALSRYGLDTEQVWRNHILAGNEDPQLKSLWYTLHFMKQYTEDMDQKSPGNKGSLVYAGIKSIVKSSLGMVESSRHNWSGLDKQSDIQNLNEERILALQLCGWIKKGTDVDVGPFLNSLVQEGEWERAAAVALFNLDIRRAIQILNEGASSEKGDLNLNVVAMELSGYTDEKNSLWREMCSTLRLQLNNPYLCVMFAFLTSETGSYDGVLYENKVAVRDRVAFACKFLSDTQLNRYIEKLTNEMKEAGNLEGILLTGLTKDGVDLMESYVDRTGDVQTASYCMLQGSPLDVLKDERVQYWIENYRNLLDAWRFWHKRAEFDIHRSKLDPSSKPLAQVFVSCNFCGKSISYSCSAVPHQGRGFSQYGVSGSPTKSKVTSCPGCRKPLPRCALCLINMGTPVSSCPGGTKSDEKVDLSKDKKLAQFNNWFTWCHNCRHGGHAGHMLSWFRDHAECPVSACTCKCMQLDTTGNLVPAETVQP

binding result [2]: binds
B3: N-terminally Flag-tagged MIOS (natural protein, human)
chain: B2 chain with E560A
